In patent publication US20260097122A1 (AUTOLUS, published 2026):

Biological target: T1, recombinant soluble CD22 ectodomain (human, UniProt P20273 20-687)
T1 construct: extracellular domain; Staining reagent used to detect the 9A8 CAR on T cells; also called soluble recombinant CD22 ectodomain
T1 sequence (looked up): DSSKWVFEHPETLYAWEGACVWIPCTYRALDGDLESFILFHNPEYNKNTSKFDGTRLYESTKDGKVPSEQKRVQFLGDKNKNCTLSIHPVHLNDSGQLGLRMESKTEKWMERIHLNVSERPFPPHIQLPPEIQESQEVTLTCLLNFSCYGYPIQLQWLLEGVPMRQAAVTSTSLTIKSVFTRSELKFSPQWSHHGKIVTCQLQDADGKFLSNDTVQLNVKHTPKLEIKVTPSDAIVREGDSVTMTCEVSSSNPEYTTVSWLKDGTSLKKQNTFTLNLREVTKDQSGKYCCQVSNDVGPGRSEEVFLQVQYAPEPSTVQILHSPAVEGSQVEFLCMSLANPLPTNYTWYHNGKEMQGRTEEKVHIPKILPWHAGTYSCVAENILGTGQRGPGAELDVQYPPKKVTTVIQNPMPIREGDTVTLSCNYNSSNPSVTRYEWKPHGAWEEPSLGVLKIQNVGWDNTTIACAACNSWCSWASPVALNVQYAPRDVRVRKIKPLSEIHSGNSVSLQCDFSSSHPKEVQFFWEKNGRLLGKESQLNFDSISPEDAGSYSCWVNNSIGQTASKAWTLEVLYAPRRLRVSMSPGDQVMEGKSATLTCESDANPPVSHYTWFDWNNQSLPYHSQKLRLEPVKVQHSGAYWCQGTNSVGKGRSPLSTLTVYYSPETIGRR
Experiment: flow cytometry of CD19 CATCAR T cells stained with anti-idiotype and soluble recombinant CD22 ectodomain [cont.) F]
Text: FIG. 4. AUTO1/22 CAR T cells enhanced activity in vivo. A) Schedule of the in vivo model. B) and C) NSG mice were intravenously injected with 1×10⁶ Nalm-6 WT (B) or Nalm-6 CD19KO (neg) cells (C), and treated with non-transduced (NT), AUTO1 or AUTO1/22 normal donor T cells. Serial bioluminescence imaging was taken. All cells expressed HA-tagged firefly Luciferase. D) and E) Spider plot showing bioluminescence flux for each mouse over time; Nalm-6 WT (D) or Nalm-6 CD19KO (neg) cells (E). F) In vivo expansion of the different CAR T cell populations. Differential engraftment of different CAR T cell populations. The proportion of the different subpopulation of CAR T cells was determined by staining for AUTO1 with anti-idiotype and 9A8CAR with soluble recombinant CD22 ectodomain. […]
Next, the function of CD19 CAR T cells (AUTO1) and CD19/22 co-transduced CAR T cells (AUTO1/22) in vivo was determined. […] NALM6 cells were first engrafted in NSG mice by tail-vein injection, and their engraftment determined by bioluminescence imaging (BLI). […] NALM6 burden was measured sequentially using BLI. […] NALM6 burden and CAR T-cell engraftment was determined by flow cytometry.
Finally, the proportion of AUTO1, CD22CAR and AUTO1/22 CAR T cells engrafted in mice at sacrifice was determined by flow-cytometry of marrow aspirate.

binding result: no binding
B1: CD19 CATCAR (second-generation CD19 CAR, aCD19cat-CD8STK-41BBZ) (other)
chain: QVQLQQSGPELVKPGASVKISCKASGYAFSSSWMNWVKQRPGKGLEWIGRIYPGDEDTNYSGKFKDKATLTADKSSTTAYMQLSSLTSEDSAVYFCARSLLYGDYLDYWGQGTTLTVSSGGGGSGGGGSGGGGSQIVLTQSPAIMSASPGEKVTMTCSASSSVSYMHWYQQKSGTSPKRWIYDTSKLASGVPDRFSGSGSGTSYFLTINNMEAEDAATYYCQQWNINPLTFGAGTKLELKRSDPTTTPAPRPPTPAPTIASQPLSLRPEACRPAAGGAVHTRGLDFACDIYIWAPLAGTCGVLLLSLVITLYCKRGRKKLLYIFKQPFMRPVQTTQEEDGCSCRFPEEEEGGCELRVKFSRSADAPAYQQGQNQLYNELNLGRREEYDVLDKRRGRDPEMGGKPRRKNPQEGLYNELQKDKMAEAYSEIGMKGERRRGKGHDGLYQGLSTATKDTYDALHMQALPPR
notes: Chimeric antigen receptor expressed on the surface of transduced T cells: CAT19 scFv, CD8 stalk spacer and transmembrane domain, 4-1BB-CD3 zeta endodomain; also called CAT19CAR; CATi9CAR
